# T1: human B7-H4 on the cell surface (human, UniProt Q7Z7D3 25-282)
# T1 sequence: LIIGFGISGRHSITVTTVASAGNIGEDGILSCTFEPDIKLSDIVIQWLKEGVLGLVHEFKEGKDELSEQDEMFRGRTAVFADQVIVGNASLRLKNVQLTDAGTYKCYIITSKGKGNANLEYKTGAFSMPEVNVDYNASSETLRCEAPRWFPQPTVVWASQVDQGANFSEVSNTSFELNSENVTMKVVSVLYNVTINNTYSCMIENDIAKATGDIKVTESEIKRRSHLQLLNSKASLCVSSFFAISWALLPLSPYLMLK
# T2: mouse B7-H4 on the cell surface (mouse, UniProt Q7TSP5 25-257)
# T2 construct: full-length, on transfected HEK293T cells
# T2 sequence: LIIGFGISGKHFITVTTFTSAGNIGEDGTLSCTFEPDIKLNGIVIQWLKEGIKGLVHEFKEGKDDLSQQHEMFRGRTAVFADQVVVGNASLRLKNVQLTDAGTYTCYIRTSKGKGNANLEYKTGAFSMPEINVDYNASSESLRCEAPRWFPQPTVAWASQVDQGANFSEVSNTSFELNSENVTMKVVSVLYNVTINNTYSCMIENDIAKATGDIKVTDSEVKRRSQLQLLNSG
# T3: cynomolgus monkey B7-H4 on the cell surface (cynomolgus monkey, UniProt Q7Z7D3 25-282 (human entry))
# T3 construct: full-length, on transfected HEK293T cells
# T3 chain: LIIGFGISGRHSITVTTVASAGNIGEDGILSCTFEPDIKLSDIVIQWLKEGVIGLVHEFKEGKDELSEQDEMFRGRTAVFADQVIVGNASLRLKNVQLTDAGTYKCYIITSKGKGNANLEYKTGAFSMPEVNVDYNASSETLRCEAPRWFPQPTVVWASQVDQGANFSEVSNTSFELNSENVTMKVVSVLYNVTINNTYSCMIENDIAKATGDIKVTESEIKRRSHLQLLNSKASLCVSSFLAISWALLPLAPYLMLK
# T4: rat B7-H4 on the cell surface (rat, UniProt Q501W4 25-257)
# T4 construct: full-length, on transfected HEK293T cells
# T4 sequence: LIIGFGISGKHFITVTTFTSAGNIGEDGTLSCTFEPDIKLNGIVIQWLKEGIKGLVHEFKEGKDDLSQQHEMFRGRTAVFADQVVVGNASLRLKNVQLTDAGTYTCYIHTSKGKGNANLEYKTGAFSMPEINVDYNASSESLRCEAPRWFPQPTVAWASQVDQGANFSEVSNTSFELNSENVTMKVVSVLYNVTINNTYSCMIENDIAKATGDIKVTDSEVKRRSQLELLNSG
# Key:
# [1] = biological target: T1, human B7-H4 on the cell surface; assay: cell-based or functional assay
# [2] = biological target: T2, mouse B7-H4 on the cell surface; assay: flow cytometry, transfected 293 cells
# Protocol: (§1) The fucosylated and afucosylated anti B7-H4 antibodies were also characterized by flow cytometry. In these experiments, HEK293T cell lines were transfected to express full-length cynomolgus monkey, mouse, or rat B7-H4. In addition, the endogenous human B7-H4 expressing SK-BR-3 breast cancer cell lines were used to assess the cell binding potency of B7-H4 antibodies. […] Following incubation, cells were pelleted, washed, incubated with a secondary labeling antibody, and run on a flow cytometer. Data were analyzed using the FlowJo software. MFI was plotted vs. antibody concentration, and the EC50 cell binding potency was calculated using nonlinear regression curve fit (GraphPad Prism).
# [3] = biological target: T3, cynomolgus monkey B7-H4 on the cell …; assay: flow cytometry, transfected 293 cells
# Protocol: as §1
# [4] = biological target: T4, rat B7-H4 on the cell surface; assay: flow cytometry, transfected 293 cells
# Protocol: as §1
# [5] = biological target: T5, B7-H4 IgV-huIgG1 (human); assay: SPR, protocol of Example 4
# T5 construct: also called N-terminal domain of human B7-H4
# Protocol: Briefly, anti-human Fab antibody was immobilized on a carboxyl-derivatized SPR chip surface, and anti-B7-H4 antibodies were captured on the resulting surface at 5 ug/ml for 30 seconds.
# [6] = biological target: T1, human B7-H4 on the cell surface; assay: cell-based or functional assay; remark: listed apart in the source
# [7] = biological target: T1, human B7-H4 on the cell surface; assay: flow cytometry, SK-BR-3 cells
# Protocol: as §1
binder,measurement,setting,value
"B7-H4 antibody 20506, fucosylated (antibody, human IgG1, kappa, V domains shown, normally fucosylated Fc glycan (made in CHO-x cells), human IgG1/kappa) VH: QLQLQESGPGLVKPSETLSLTCTASGGSISHGGYYWSWIRQHPGKGLEWIGNIYYSGSTYYNPSLKSRVTMSVDTSKNQFSLKLSSVTAADTAVYYCARESSTISADFDLWGRGTLVTVSS VL: DIQMTQSPSSVSASVGDRVTITCRASQGISRWLAWYQQKPGKAPKLLIYAASSLQSGVPSRFSGSGSGTDFTLTISSLQPEDFATYYCQQAHTFPYTFGGGTKVEIKR",aAPC Assay EC50 (IFNγ production),[1],0.95 nM
same,EC50,[2],1.77 nM
same,EC50,[3],1.77 nM
same,EC50,[4],3.25 nM
same,Kd,[5],1.93 nM
same,koff,[5],0.000703 s⁻¹
same,kon,[5],365000 M⁻¹ s⁻¹
same,ADCC Assay EC50 (SK-BR-3 target cells),[6],0.0135 nM
same,EC50,[7],0.739 nM

# Reference: US20240043542A1 (published 2024)
